Here are results for 16 molecules from patent US20250340857A1 (SEISMIC THERAPEUTIC, published 2025).

B1: FP178 (Fc fusion)
chain: TALGRRKAEDRIKETLWADGVKIDEKDFEHIKSSHEDYFAVEYGKGSGYYDVNKKMDSEDSALCVGAVVTNMFHWWVDQNRENIEKFKKQDPENNGVMKFEGVKEATVDELNEFYRDNRDNYADQSRFFDLIKKHFGNKALNPEELFELYFNGFYYGSSHRYIEDNEPAQNNLFSKVLENNKLLNPERSYGIDGFSNNVINALKSHKVLGLVYTTPLRYRHIISMWGADIDQDGKVKAIYVTDSDDREITFNDNSKRRIGMIRYDVLVDDNGNIRFTGKGATHKEEGAIYAGLYSLSRGDEVWEDYFKKYPEVQENLDKTHTCPPCPAPEAAGAPSVFLFPPKPKDTLMISRTPEVTCVVVDVSHEDPEVKFNWYVDGVEVHNAKTKPREEQQNSTYRVVSVLTVLHQDWLNGKEYKCKVSNKALKAPIEKTISKAKGQPREPQVYTLPPSRDELTKNQVSLTCLVKGFYPSDIAVEWESNGQPENNYKTTPPVLDSDGSFFLYSKLTVDKSRWQQGNVFSCSVMHEALHNHYTQKSLSLSPG
B2: FP167 (Fc fusion)
chain 1: DKTHTCPPCPAPEAAGAPSVFLFPPKPKDTLMISRTPEVTCVVVDVSHEDPEVKFNWYVDGVEVHNAKTKPREEQQNSTYRVVSVLTVLHQDWLNGKEYKCKVSNKALKAPIEKTISKAKGQPREPQVYTLPPSRDELTKNQVSLWCLVKGFYPSDIAVEWESNGQPENNYKTTPPVLDSDGSFFLYSKLTVDKSRWQQGNVFSCSVMHEALHNHYTQKSLSLSPGGSSAPGSSAPGSSAPTALGRRKAEDRIKETLWADGVKIDEKDFEHIKSSHEDYFAVEYGKGSGYYDVNKKMDSEDTALCVGAVVTNMFHWWVDQNRENIEKFKKQDPENNGVMKFEGVKEATVDELNEFYRDNRDNYADQSRFFDLIKKHFGNKALNPEELFELYFNGFYYGSSHRYIEDNEPAQNNLFSKVLENNKLLNPERSYGIDGFSNNVINALKSHKVLGLVYTTPLRYRHIISMWGADIDQDGKVKAIYVTDSDDREITFNDNSKRRIGMIRYDVLVDDNGNIRFTGKGATHKEEGAIYAGLYSLSRGDEVWEDYFKKYPEVQENL
chain 2: DKTHTCPPCPAPEAAGAPSVFLFPPKPKDTLMISRTPEVTCVVVDVSHEDPEVKFNWYVDGVEVHNAKTKPREEQQNSTYRVVSVLTVLHQDWLNGKEYKCKVSNKALKAPIEKTISKAKGQPREPQVYTLPPSRDELTKNQVSLSCAVKGFYPSDIAVEWESNGQPENNYKTTPPVLDSDGSFFLVSKLTVDKSRWQQGNVFSCSVMHEALHNHYTQKSLSLSPG
B3: FP175 (Fc fusion)
chain 1: B2 chain 1 with M208L, N214S, T302S
chain 2: B2 chain 2 with M208L, N214S
B4: FP174 (Fc fusion)
chain 1: B2 chain 1 with T302S
chain 2: B2 chain 2
B5: FP183 (Fc fusion)
chain 1: DKTHTCPPCPAPEAAGAPSVFLFPPKPKDTLMISRTPEVTCVVVDVSHEDPEVKFNWYVDGVEVHNAKTKPREEQQNSTYRVVSVLTVLHQDWLNGKEYKCKVSNKALKAPIEKTISKAKGQPREPQVYTLPPSRDELTKNQVSLWCLVKGFYPSDIAVEWESNGQPENNYKTTPPVLDSDGSFFLYSKLTVDKSRWQQGNVFSCSVMHEALHNHYTQKSLSLSPGAEEEKAEEEKAEEEKTALGRRKAEDRIKETLWADGVKIDEKDFEHIKSSHEDYFAVEYGKGSGYYDVNKKMDSEDSALCVGAVVTNMFHWWVDQNRENIEKFKKQDPENNGVMKFEGVKEATVDELNEFYRDNRDNYADQSRFFDLIKKHFGNKALNPEELFELYFNGFYYGSSHRYIEDNEPAQNNLFSKVLENNKLLNPERSYGIDGFSNNVINALKSHKVLGLVYTTPLRYRHIISMWGADIDQDGKVKAIYVTDSDDREITFNDNSKRRIGMIRYDVLVDDNGNIRFTGKGATHKEEGAIYAGLYSLSRGDEVWEDYFKKYPEVQENL
chain 2: B2 chain 2
B6: FP184 (Fc fusion)
chain 1: DKTHTCPPCPAPEAAGAPSVFLFPPKPKDTLMISRTPEVTCVVVDVSHEDPEVKFNWYVDGVEVHNAKTKPREEQQNSTYRVVSVLTVLHQDWLNGKEYKCKVSNKALKAPIEKTISKAKGQPREPQVYTLPPSRDELTKNQVSLWCLVKGFYPSDIAVEWESNGQPENNYKTTPPVLDSDGSFFLYSKLTVDKSRWQQGNVFSCSVMHEALHNHYTQKSLSLSPGEAAAKEAAAKEAAAKTALGRRKAEDRIKETLWADGVKIDEKDFEHIKSSHEDYFAVEYGKGSGYYDVNKKMDSEDSALCVGAVVTNMFHWWVDQNRENIEKFKKQDPENNGVMKFEGVKEATVDELNEFYRDNRDNYADQSRFFDLIKKHFGNKALNPEELFELYFNGFYYGSSHRYIEDNEPAQNNLFSKVLENNKLLNPERSYGIDGFSNNVINALKSHKVLGLVYTTPLRYRHIISMWGADIDQDGKVKAIYVTDSDDREITFNDNSKRRIGMIRYDVLVDDNGNIRFTGKGATHKEEGAIYAGLYSLSRGDEVWEDYFKKYPEVQENL
chain 2: B2 chain 2
B7: FP179 (Fc fusion)
chain 1: B1 chain with T463W
chain 2: B2 chain 2
B8: FP168 (Fc fusion)
chain 1: B2 chain 1 with M208L, N214S
chain 2: B2 chain 2 with M208L, N214S
B9: FP158 (Fc fusion)
chain: DKTHTCPPCPAPEAAGAPSVFLFPPKPKDTLMISRTPEVTCVVVDVSHEDPEVKFNWYVDGVEVHNAKTKPREEQQNSTYRVVSVLTVLHQDWLNGKEYKCKVSNKALKAPIEKTISKAKGQPREPQVYTLPPSRDELTKNQVSLTCLVKGFYPSDIAVEWESNGQPENNYKTTPPVLDSDGSFFLYSKLTVDKSRWQQGNVFSCSVMHEALHNHYTQKSLSLSPGGGGSGGGGSGGGGSTALGRRKAEDRIKETLWADGVKIDEKDFEHIKSSHEDYFAVEYGKGSGYYDVNKKMDSEDTALCVGAVVTNMFHWWVDQNRENIEKFKKQDPENNGVMKFEGVKEATVDELNEFYRDNRDNYADQSRFFDLIKKHFGNKALNPEELFELYFNGFYYGSSHRYIEDNEPAQNNLFSKVLENNKLLNPERSYGIDGFSNNVINALKSHKVLGLVYTTPLRYRHIISMWGADIDQDGKVKAIYVTDSDDREITFNDNSKRRIGMIRYDVLVDDNGNIRFTGKGATHKEEGAIYAGLYSLSRGDKVWKDYFKKYPEVQENL
B10: FP160 (Fc fusion)
chain: B9 chain with I432R, D510K, E525N
B11: FP159 (Fc fusion)
chain: B9 chain with D510K, E525N, K541E, K544E
B12: FP165 (Fc fusion)
chain 1: B9 chain with T146W, M208L, N214S, K541E, K544E
chain 2: B2 chain 2 with M208L, N214S
B13: FP163 (Fc fusion)
chain: B9 chain with N511E, K541E, K544E
B14: FP170 (Fc fusion)
chain 1: B9 chain with T146W, T301S, K541E, K544E
chain 2: B2 chain 2
B15: FP164 (Fc fusion)
chain: B9 chain with H375D, K541E, K544E
B16: FP171 (Fc fusion)
chain 1: B9 chain with T146W, M208L, N214S, T301S, K541E, K544E
chain 2: B2 chain 2 with M208L, N214S

Changes are numbered by the printed parent chain.

The target in the test is Human IgE antibody (human). The test can be described thus: cell-based or functional assay.
Regarding B1, the “EC50 CE-SDS IgE” value was determined as 2.61 nM and the “EC50 MSD IgE” value amounted to 0.317 nM.
Turning to B2, the “EC50 MSD IgE” value was 0.721 nM.
For B3, the “EC50 CE-SDS IgE” value came out at 179 nM and the “EC50 MSD IgE” value turned out to be 1.88 nM.
B4: the “EC50 CE-SDS IgE” value was found to be 12.2 nM and the “EC50 MSD IgE” value amounted to 0.511 nM.
As for B5, the “EC50 CE-SDS IgE” value worked out at 7.63 nM and the “EC50 MSD IgE” value was 0.548 nM.
On to B6, for which the “EC50 MSD IgE” value was 0.475 nM.
On to B7, for which the “EC50 CE-SDS IgE” value was found to be 6.64 nM and the “EC50 MSD IgE” value turned out to be 0.424 nM.
For the molecule B8, the “EC50 CE-SDS IgE” value came to 17.6 nM and the “EC50 MSD IgE” value was 0.637 nM.
Take B9: the “EC50 CE-SDS IgE” value turned out to be 0.2 nM.
For B10, the “EC50 CE-SDS IgE” value is 4.04 nM.
Turning to B11, the “EC50 CE-SDS IgE” value came to 2.45 nM.
Regarding B12, the “EC50 CE-SDS IgE” value stood at 29.3 nM and the “EC50 MSD IgE” value worked out at 0.822 nM.
On to B13, for which the “EC50 CE-SDS IgE” value came to 30.5 nM.
Consider B14, for which the “EC50 CE-SDS IgE” value was 14.6 nM and the “EC50 MSD IgE” value was found to be 1.02 nM.
B15: the “EC50 CE-SDS IgE” value was found to be 17.4 nM.
In the case of B16, the “EC50 CE-SDS IgE” value was found to be 17.8 nM and the “EC50 MSD IgE” value was 1.35 nM.
